Columns and labels:
[1] = biological target: T1, 人Siglec-15抗原 (Siglec-15蛋白胞外段) (human) (UniProt Q6ZMC9); assay: ELISA, relative binding activity of HA-I purified by the method of Example 24; reference not given
T1 sequence (looked up): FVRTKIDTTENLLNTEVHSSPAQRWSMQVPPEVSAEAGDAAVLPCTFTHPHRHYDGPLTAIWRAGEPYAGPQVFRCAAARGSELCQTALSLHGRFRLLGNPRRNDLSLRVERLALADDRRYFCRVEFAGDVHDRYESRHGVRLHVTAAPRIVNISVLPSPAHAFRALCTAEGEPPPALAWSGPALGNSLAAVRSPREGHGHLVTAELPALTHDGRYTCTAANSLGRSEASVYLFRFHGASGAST

[2] = biological target: T1, 人Siglec-15抗原 (Siglec-15蛋白胞外段) (human); assay: ELISA, relative binding activity of HA-I purified by the method of Example 26; reference not given
[3] = biological target: T1, 人Siglec-15抗原 (Siglec-15蛋白胞外段) (human); assay: ELISA, relative binding activity of HA-I purified by the method of Example 27; reference not given
[4] = biological target: T1, 人Siglec-15抗原 (Siglec-15蛋白胞外段) (human); assay: ELISA, relative binding activity of HA-I purified by the method of Example 28; reference not given
[5] = biological target: T1, 人Siglec-15抗原 (Siglec-15蛋白胞外段) (human); assay: ELISA, relative binding activity of HA-I purified by the method of Example 29; reference not given
[6] = biological target: T1, 人Siglec-15抗原 (Siglec-15蛋白胞外段) (human); assay: ELISA, relative binding activity of HA-I purified by the method of Example 30; reference not given
[7] = biological target: T1, 人Siglec-15抗原 (Siglec-15蛋白胞外段) (human); assay: ELISA, relative binding activity of HA-I purified by the method of Example 31; reference not given
[8] = biological target: T1, 人Siglec-15抗原 (Siglec-15蛋白胞外段) (human); assay: ELISA, relative binding activity of HA-I purified by the method of Example 32; reference not given
[9] = biological target: T1, 人Siglec-15抗原 (Siglec-15蛋白胞外段) (human); assay: ELISA, relative binding activity of HA-I purified by the method of Example 33; reference not given

B1: 抗Siglec-15单克隆抗体HA-I (人源化抗体分子, human IgG1/Ck) (antibody, V domains shown)
VH: QVQLVQSGAEVKKPGASVKVSCKASGYTFTDYNMFWVRQAPGQRLEWIGYIYPDNGGTGYNQNFKSKATLTVDNSASTAYMELSSLRSEDTAVYYCARSEYDYFDYWGQGTLVTVSS
VL: DIVLTQSPSSLSASVGDRVTITCRASQDISNYLNWYQQKPGKAVKLLIYYTSRLHSGVPSRFSGSGSGTDYTFTISSLQPEDIATYFCQQGNTLPLTFGQGTKVELKR
Q: Which results are given for B1?
A: 结合活性(%) [1]: 100%; 结合活性(%) [2]: 112%; 结合活性(%) [3]: 88%; 结合活性(%) [4]: 90%; 结合活性(%) [5]: 78%; 结合活性(%) [6]: 105%; 结合活性(%) [7]: 79%; 结合活性(%) [8]: 86%; 结合活性(%) [9]: 83%
